Measurements from US8268779B2, “Pharmaceutical composition comprising oxyntomodulin derivatives and a method for reducing body weight using the composition” (Merck Sharp & Dohme Corp., priority 2006, dated 2012).
Non-standard residues stand in square brackets, D forms with d. Residues, ends and D or L forms follow the SMILES beside them. No end group written: not given here. *: point of attachment. C3 = cysteine residue PEGylated via the side-chain thiol with branched methoxyPEG [(mPEG)2] of 40 kDa (Cys(mPEG)2 40 kDa); (mPEG)2 40 kDa = C3 = Cys(mPEG)2 40 kDa, cysteine PEGylated via side-chain thiol with branched mPEG of 40 kDa; Desaminohistidyl = O=C(CCc1c[nH]cn1)*; Met(O) = CS(=O)CC[C@H](N)C(=O)O; Aib = CC(C)(N)C(=O)O

Experiments:
hGLP-1R [1] = target: T1, hGLP-1R (Homo sapiens, UniProt P43220); assay: EC50 (hGLP-1R), nM | "-DPP-IV"
Procedure: (§1) Table printed on a drawing sheet, FIG.17
Head of the field: EC50 (hGLP-1R), nM | "-DPP-IV"
(§2) First copying reader's note: The "+DPP-IV" column is the hGLP-1R EC50 measured after incubation with DPP-IV, so stability is shown as a potency shift against the "-DPP-IV" column.
(§3) Where the first naming reader finds the target: head: EC50 (hGLP-1R), nM

hGLP-1R [2] = target: T1, hGLP-1R; assay: EC50 (hGLP-1R), nM | "+DPP-IV"
Procedure: as §1, §2, §3

[3] = system: islets from GLP-1R−/− mice; assay: GSIS in GLP-1R-/- islets; format: cell-based, mouse; conditions: 10 nM peptide, 16 mmol/l glucose
Procedure: (§4) To measure GSIS, islets were first preincubated for 30 minutes in the Krebs-Ringer bicarbonate (KRB) buffer with 2 mM glucose (in Petri dishes). […] Insulin was measured in aliquots of the incubation buffer by ELISA with a commercial kit (ALPCO Diagnostics, Windham, N.H.).

[4] = system: islets from wild type C57BL/6 mice; assay: Glucose-stimulated insulin secretion (GSIS) in wild type murine islets; format: cell-based, mouse
Procedure: as §4

[5] = system: islets from GCG-R−/− mice; assay: GSIS in GCG-R-/- islets; conditions: 10 nM peptide
Procedure: as §4

Male C57BL/6N mice = assay: Acute effects on food intake and body weight in lean mice; format: in vivo, mouse; conditions: for overnight body weight gain in mice fed ad libitum: equimolar/similar doses; for overnight food intake and body weight gain in lean mice: FIG. 3
Procedure: Absolute changes in food intake were calculated for each animal by subtracting the amount of food remaining in the food hopper at the specified time points from that of the corresponding original pre-weighed aliquot. Absolute changes in body weight were calculated for each animal by subtracting the body weight of the animal prior to dosing from that of the corresponding animal at the specified time points. All values were reported as mean±SEM and peptide treatment groups were analyzed by the two-tailed unpaired Student's t test with reference to vehicle-treated animals. […] (FIG. 3)

[6] = system: mutant form of the human GLP-1R; assay: GLP-1R cAMP HTRF assay in transfected CHO cells; format: cell-based
[7] = target: T2, recombinant soluble human DP-IV (Homo sapiens, UniProt P27487); assay: Resistance to DP-IV cleavage (preincubation with DP-IV, then hGLP-1R cAMP HTRF assay); format: in vitro ADME; conditions: FIG. 1
T2 construct: recombinant soluble human DP-IV
T2 sequence (P27487 39-766 limits assumed): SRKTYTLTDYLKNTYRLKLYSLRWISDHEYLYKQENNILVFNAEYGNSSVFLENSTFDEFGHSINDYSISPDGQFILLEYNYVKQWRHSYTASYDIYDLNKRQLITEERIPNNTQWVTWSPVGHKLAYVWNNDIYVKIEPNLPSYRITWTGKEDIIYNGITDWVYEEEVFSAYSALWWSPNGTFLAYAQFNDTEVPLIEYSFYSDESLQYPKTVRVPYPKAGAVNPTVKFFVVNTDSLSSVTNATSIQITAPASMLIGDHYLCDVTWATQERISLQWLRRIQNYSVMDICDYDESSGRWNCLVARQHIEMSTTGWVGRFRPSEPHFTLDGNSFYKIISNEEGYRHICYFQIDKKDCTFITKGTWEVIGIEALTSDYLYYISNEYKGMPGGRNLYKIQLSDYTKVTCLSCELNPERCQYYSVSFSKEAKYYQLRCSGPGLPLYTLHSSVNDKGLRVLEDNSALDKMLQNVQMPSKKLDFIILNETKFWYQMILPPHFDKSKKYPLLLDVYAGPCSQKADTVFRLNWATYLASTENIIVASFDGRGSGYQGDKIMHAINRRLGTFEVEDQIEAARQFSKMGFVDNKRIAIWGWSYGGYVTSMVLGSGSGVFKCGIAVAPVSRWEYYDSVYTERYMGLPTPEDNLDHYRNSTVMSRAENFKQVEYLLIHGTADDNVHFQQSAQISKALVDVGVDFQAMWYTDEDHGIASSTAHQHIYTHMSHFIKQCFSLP
Procedure: Activation of hGLP-1R was subsequently measured using the Cis Bio HTRF cAMP assay and compared to control peptides pre-incubated at 37° C. for 2 hours in the absence of DP-IV.

[8] = Hydrolysis sites on incubation in PBS containing 10% mouse or human plasma; format: in vitro ADME; conditions: 37° C.
Procedure: A detailed study was undertaken in which OXM139 was incubated in PBS containing 10% of mouse or human plasma at 37° C. Sample preparation was accomplished by mixing 1 μL of test solution and 1 μL of matrix (α-cyano) directly on the sample plate. After crystallization Tof spectrum was collected: Time points at 30, 60, 120 and 720 minutes were analyzed and compared with the same time points of the control test solutions. […] Specifically, Arg 17 was mutated to Glu and Arg 18 was mutated to Ala. The peptide OXM153 is the N-ethyl maleimide analog of OXM151. The peptide OXM154 is the conjugate obtained using a (mPEG)240 kDa from NOF Corporation (SUNBRIGHT GL2-400MA Maleimide).
A similar study of stability was performed on a GcgK series analog OXM144 to determine the primary sites of hydrolysis by incubation with PBS, containing 10% of either mouse or human plasma. […] For this reason, it was decided to introduce mutations at the sites 17 and 18 also in the GcgK analog series.

glucagon-like activity = assay: Glucagon-like activity in vitro (FIG. 13)
mice = assay: Gastric emptying in mice; format: in vivo, mouse; conditions: maximally efficacious dose for glucose lowering
WT mice = assay: IPGTT with plasma glucose and insulin in WT mice; format: in vivo, mouse; conditions: OXM 0.3 mpk i.p., exendin-4 0.02 mpk i.p.
GLP-1R−/− mice = assay: IPGTT with plasma glucose and insulin in GLP-1R-/- mice; format: in vivo, mouse

Row | Compound | EC50 (hGLP-1R [1]) [nM] | EC50 (hGLP-1R [2]) [nM] | further results
1 | GLP-1: incretin hormone glucagon-like peptide 1, positive control |  |  | potentiation of GSIS in GLP-1R−/− islets [3]: completely unable to enhance GSIS; GSIS in WT islets ([4]; 10 nM peptide, 16 mmol/l glucose): enhanced GSIS in WT islets with equal efficacy; potentiation of GSIS in WT islets in the presence of exendin-9 ([4]; 0.5 μM exendin-9): completely blocked; GSIS in GCG-R−/− islets ([5]; 16 mM glucose): significantly increased GSIS; fold-increase in fractional GSIS in GCG-R−/− islets ([5]; % insulin released relative to total islet insulin content): 2.5 fold
2 | H2αDGTFTSDYSKYLDSRRAC3DFVQWLmNTKRNRNNIA-CONH2 ([Desaminohistidyl][Aib]DGTFTSDYSKYLDSRRAC((mPEG)2 40 kDa)DFVQWL[Met(O)]NTKRNRNNIA-NH2) [OXM129] | 25 | 123 | 
3 | HGQGTFTSDYSKYLDSRRAQDFVQWLMNTKRNRNNIAA-COOH (Synthetic peptide based on the human oxyntomodulin sequence) [OXM1] |  |  | overnight body weight gain in mice fed ad libitum (Male C57BL/6N mice): not efficacious
4 | HGQGTFTSDYSKYLDSRRAQDFVQWLMNTKRNRNNIAC2-COOH (HGQGTFTSDYSKYLDSRRAQDFVQWLMNTKRNRNNIAX; C2 conjugate at C-terminal cysteine; Synthetic peptide based on the human oxyntomodulin sequence) [OXM2] |  |  | overnight food intake and body weight gain in lean mice (Male C57BL/6N mice): reducing overnight food intake and body weight gain; overnight body weight gain in mice fed ad libitum (Male C57BL/6N mice): effective in reducing overnight body weight gain; potency against GLP-1R in vitro relative to native OXM [6]: significantly less potent than native OXM; hGLP-1R potency after preincubation of the peptide with DP-IV [7]: loss of potency
5 | HGQGTFTSDYSKYLDSRRAQDFVQWLMNTKRNRNNIAC3-COOH (HGQGTFTSDYSKYLDSRRAQDFVQWLMNTKRNRNNIAX; C3 conjugate at C-terminal cysteine; Synthesized oxyntomodulin polypeptide) [OXM3] |  |  | overnight food intake and body weight gain in lean mice (Male C57BL/6N mice): reducing overnight food intake and body weight gain; overnight body weight gain in mice fed ad libitum (Male C57BL/6N mice): effective in reducing overnight body weight gain; potency against GLP-1R in vitro relative to native OXM [6]: significantly less potent than native OXM
6 | HαDGTFTSDYSKYLDSRRAC8DFVQWLmNTK-CONH2 [OXM144] |  |  | primary hydrolysis site [8]: bond between Arg17 and Arg18; secondary site of hydrolysis [8]: bond between Arg18 and Ala19
7 | HαDGTFTSDYSKYLDSRRAQDFVQWLmNTKRNRNNIAC3-CONH2 (H[Aib]DGTFTSDYSKYLDSRRAQDFVQWL[Met(O)]NTKRNRNNIAC((mPEG)2 40 kDa)-NH2) [OXM117, (mPEG)240 kDa conjugate made with MPEG2-MAL-40K (NEKTAR)] |  | 41.3 | 
8 | HαDGTFTSDYSKYLDSRRAQDFVQWLmNTKRNRNNIAC3-CONH2 [OXM117, (mPEG)240 kDa conjugate made with MPEG2-MAL-40K (NEKTAR)] |  |  | glucagon-like activity in vitro (glucagon-like activity): no glucagon-like activity
9 | HαDGTFTSDYSKYLDSRRAQDFVQWLmNTKRNRNNIAC8-CONH2 [OXM139] |  |  | primary hydrolysis site [8]: bond between Arg17 and Arg18; secondary site of hydrolysis [8]: bond between Arg18 and Ala19
10 | HαQGTFTSDYSKYLDSRRAC3DFVQWLMNTKRNRNNIA-CONH2 (H[Aib]QGTFTSDYSKYLDSRRA[C3]DFVQWLMNTKRNRNNIA-NH2) [OXM103] | 6.2 | 12.7 | 
11 | HαQGTFTSDYSKYLDSRRAQC3FVQWLMNTKRNRNNIA-CONH2 (HXQGTFTSDYSKYLDSRRAQXFVQWLMNTKRNRNNIA; Aib2, C-terminal amide, conjugated Cys; Synthetic peptide based on the human oxyntomodulin sequence) [OXM105] | 28.5 | 36.7 | 
12 | HαQGTFTSDYSKYLDSRRAQDFVQWLmNTKRNRNNIAC3-CONH2 [OXM99] | 7.5 | 27.5 | 
13 | HαQGTFTSDYSKYLDSRRAQDFVQWLmNTKRNRNNIAC6-CONH2 [OXM100] | 22.5 | 184 | 
14 | exendin-4: GLP-1 mimetic, GLP-1 receptor agonist used as comparator |  |  | reduction of gastric emptying (mice): 47%; reduction of glucose AUC relative to the vehicle group (WT mice): > 60%; basal insulin levels (GLP-1R−/− mice): did not affect basal insulin levels; insulin response to i.p. glucose challenge (GLP-1R−/− mice): nor did it improve the insulin response; glucose excursion in IPGTT (GLP-1R−/− mice; same doses): did not affect glucose excursion

The next lines start with results.

Row | EC50 (hGLP-1R [1]) [nM] | EC50 (hGLP-1R [2]) [nM] | Compound | further results
15 | 0.9 | 2.2 | CSCC[C@H](NC(=O)[C@H](CC(C)C)NC(=O)[C@H](Cc1c[nH]c2ccccc12)NC(=O)[C@H](CCC(N)=O)NC(=O)[C@@H](NC(=O)[C@H](Cc1ccccc1)NC(=O)[C@H](CC(=O)O)NC(=O)[C@H](CCC(N)=O)NC(=O)[C@H](C)NC(=O)[C@H](CCCNC(=N)N)NC(=O)[C@H](CCCNC(=N)N)NC(=O)[C@H](CO)NC(=O)[C@H](CC(=O)O)NC(=O)[C@H](CC(C)C)NC(=O)[C@H](Cc1ccc(O)cc1)NC(=O)[C@H](CCCCN)NC(=O)[C@H](CO)NC(=O)[C@H](Cc1ccc(O)cc1)NC(=O)[C@H](CC(=O)O)NC(=O)[C@H](CO)NC(=O)[C@@H](NC(=O)[C@H](Cc1ccccc1)NC(=O)[C@@H](NC(=O)CNC(=O)[C@H](CC(=O)O)NC(=O)C(C)(C)NC(=O)[C@@H](N)Cc1c[nH]cn1)[C@@H](C)O)[C@@H](C)O)C(C)C)C(=O)N[C@@H](CC(N)=O)C(=O)N[C@H](C(=O)N[C@@H](CCCCN)C(N)=O)[C@@H](C)O [OXM131] (H-H[Aib]DGTFTSDYSKYLDSRRAQDFVQWLMNTK-NH2; N-terminus assumed) | 
16 | 93.3 | 92.3 | H2αQGTFTSDYSKYLDSRRAQDFVQWLmNTKRNRNNIAC3-CONH2 (XXQGTFTSDYSKYLDSRRAQDFVQWLXNTKRNRNNIAX; Aib2, D-Met, C-terminal amide, conjugated Cys; Synthetic peptide based on the human oxyntomodulin sequence) [OXM113] | 
17 | 0.06 | 0.05 | H2αQGTFTSDYSKYLDSRRAQDFVQWLmNTKRNRNNIAC4-CONH2 (XXQGTFTSDYSKYLDSRRAQDFVQWLXNTKRNRNNIAX; Aib2, D-Met, C-terminal amide, conjugated Cys; Synthetic peptide based on the human oxyntomodulin sequence) [OXM114] | 
18 | 6.9 | 10.9 | H2αQGTFTSDYSKYLDSRRAQDFVQWLmNTKRNRNNIAC5-CONH2 (XXQGTFTSDYSKYLDSRRAQDFVQWLXNTKRNRNNIAX; Aib2, D-Met, C-terminal amide, modified Cys; Synthetic peptide based on the human oxyntomodulin sequence) [OXM112] | 
19 | 3.9 | 42.5 | HαDGTFTSDYSKYLDSRRAC3DFVQWLmNTKRNRNNIA-CONH2 [OXM125] | 
20 | 0.025 | < 0.5 | HαDGTFTSDYSKYLDSRRAQDFVQWLmNTKRNRNNIAC4-CONH2 [OXM118] | 
21 | > 125 | > 125 | HαQGTFTSDYC3KYLDSRRAQDFVQWLmNTKRNRNNIA-CONH2 [OXM121] | 
22 | > 100 | > 100 | HαQGTFTSDYSC3YLDSRRAQDFVQWLmNTKRNRNNIA-CONH2 [OXM124] | 
23 | > 500 | > 500 | HαQGTFTSDYSKYLDSRRAQDC4VQWLmNTKRNRNNIA-CONH2 [OXM127] | 
24 | 29.7 | 182 | HαQGTFTSDYSKYLDSRRAQDFVC3WLmNTKRNRNNIA-CONH2 [OXM107] | 
25 | 7.6 | 14.5 | HαQGTFTSDYSKYLDSRRAQDFVQWLMC3TKRNRNNIA-CONH2 (HXQGTFTSDYSKYLDSRRAQDFVQWLMXTKRNRNNIA; Aib2, C-terminal amide, conjugated Cys; Synthetic peptide based on the human oxyntomodulin sequence) [OXM109] | 
26 | 5.8 | 8.7 | HαQGTFTSDYSKYLDSRRAQDFVQWLMNTK-CONH2 (HXQGTFTSDYSKYLDSRRAQDFVQWLMNTK; Aib2, C-terminal amide; Synthetic peptide based on the human oxyntomodulin sequence) [OXM130] | 
